Source: patent publication US20130274185A1, “Pharmaceutical for Pseudo-Exercise Therapy” (THE UNIVERSITY OF TOKYO, priority 2010, published 2013)
Entries after “also recorded” stand apart in the source; their conditions may differ.

Assays:
C2C12 myocytes [1] = assay: Calcium imaging in C2C12 myocytes (fura-2); type: cell-based, mouse
Experimental: C212 myocytes cultured on glass base dishes (IWAKI) were treated with 2.5 μM fura-2/AM for 30 min. Fluorescence was measured with an Aquacosmos Calcium Imaging system (Hamamatsu Photonics). Ligands were delivered through the superfusing Ringer's solution (140 mM NaCl, 5.6 mM KCl, 5 mM HEPES, 2.0 mM sodium pyruvate, 1.25 mM KH2PO4, 2.0 mM CaCl2, 2.0 mM MgCl2, 9.4 mM D-glucose (pH 7.4)). For the calcium chelating experiment, EGTA solution (140 mM NaCl, 5.6 mM KCl, 5 mM HEPES, 2.0 mM sodium pyruvate, 1.25 mM KH2PO4, 2.0 mM MgCl2, 5.0 mM EGTA-2Na, 9.4 mM D-glucose (pH 7.4) was used for the bath solution. Fura-2 fluorescence ratios were calibrated to calcium ion signals.

C2C12 myocytes [2] = assay: NAD+/NADH measurements in C2C12 myocytes; type: cell-based, mouse
Experimental: NAD^+ and NADH nucleotides were directly measured by the method described in the following document (Nature, 458, 1056-1060 (2009)). Whole skeletal muscles or two 10 cm dishes of C2C12 myocytes were homogenized in 200 μl of an acid extraction buffer to measure the NAD^+ concentration, or 200 μl of alkali extraction to obtain the NADH concentration. Next, homogenates were neutralized and the concentration of nucleotides was measured fluorimetrically after an enzymatic cycling reaction using 5 μl of a sample. Values for both nucleotides were detected within the linear range. NAD^+/NADH ratios were calculated by comparing the ratios obtained from each animal or from parallel cell dishes in each experiment.

AMPK = AMPK phosphorylation in C2C12 myocytes; type: cell-based, mouse; settings: C2C12 myocytes, adiponectin 30 μg/ml
Experimental: (§1) The mouse C2C12 myoblasts were grown in 90% Dulbecco's modified high glucose Eagle's medium containing 10% (v/v) fetal bovine serum. When the cells reached 80% confluent, the myoblasts were induced to differentiate into myocytes by replacing the medium with a low serum differentiation medium (98% Dulbecco's modified high glucose Eagle's medium, 2.5% (v/v) horse serum). The medium was changed daily. The C2C12 cells were transfected by using Pofectamine 2000 (Invitrogen) and following the manufacturer's instructions.

CaMKI [3] = assay: CaMKI phosphorylation in skeletal muscle in vivo; parameters: species or system mice; settings: 30 μg per 10 g body weight, 5 min
Description: (§2) Mouse full-length adiponectin was generated as described in the following documents (Nature Med. 8, 1288-1295 (2002); Nature Med. 7, 941-946 (2001); Nature 423, 762-769 (2003)).

AdipoR1 = biological target: T1, AdipoR1 (Mus musculus, UniProt Q91VH1); assay: Electrophysiological recording in Xenopus oocytes expressing AdipoR1; type: cell-based
T1 construct: expressed in transfected cells; host or cells: Xenopus oocytes (stage V to VII), cRNA synthesized from linearized modified pSPUTK
T1 sequence (Q91VH1 1-375): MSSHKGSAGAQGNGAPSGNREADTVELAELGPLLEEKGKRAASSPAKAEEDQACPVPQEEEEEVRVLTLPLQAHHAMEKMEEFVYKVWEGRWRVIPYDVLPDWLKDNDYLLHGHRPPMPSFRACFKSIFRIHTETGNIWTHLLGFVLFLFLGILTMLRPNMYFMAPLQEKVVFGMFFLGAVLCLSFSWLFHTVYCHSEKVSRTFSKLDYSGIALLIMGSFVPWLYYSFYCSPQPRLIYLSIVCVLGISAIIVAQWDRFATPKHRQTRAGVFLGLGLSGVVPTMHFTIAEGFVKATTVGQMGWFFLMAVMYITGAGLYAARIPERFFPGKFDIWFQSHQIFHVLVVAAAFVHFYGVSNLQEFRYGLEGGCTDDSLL
Experimental: Stage V to VII oocytes were treated with 2 mg/ml of collagenase S-1 (Nitta gelatin) in calcium ion-free saline solution (82.5 mM NaCl, 2 mM KCl, 1 mM MgCl2, and 5 mM HEPES, pH 7.5) for 1 to 2 hr at room temperature. The resulting oocytes were then microinjected with 50 ng of cRNA for mAdipoR1. The cRNA was synthesized from linearized modified pSPUTK. The injected oocytes were incubated for 3 days at 18° C. in a bath solution (88 mM NaCl, 1 mM KCl, 0.3 mM Ca(NO3)2, 0.4 mM CaCl2, 0.8 mM MgSO4, 2.4 mM […], 15 mM HEPES, pH 7.6) supplemented with 10 μg/ml of penicillin and streptomycin.
Whole cell currents were recorded with a two-electrode voltage clamp technique. Intracellular glass electrodes were filled with 3M KCl. Signals were amplified with an OC-725C amplifier (Warner Instruments), low-pass filtered at 50 Hz, and digitized at 1 kHz. A control bath solution contained 115 mM NaCl, 2.5 mM KCl, 1.8 mM CaCl2, and 10 mM HEPES. It was titrated to pH 7.2 with NaOH. A calcium ion free solution containing 1.8 mM BaCl2 instead of CaCl2 was used. The inward current was monitored at a holding potential of −80 mV. Calcium ion activated Cl^− current was monitored by applying 500-mscc depolarizing pulses of +100 mV and +50 mV from the holding potential of −80 mV. Adiponectin was supplied to the superfusing bath solution via a silicon tube connected to computer-driven solenoid valves. Data acquisition and analysis were carried out using Digidata 1322A and pCLAMP software.

PGC-1α (Ppargc1a) = assay: Ppargc1a mRNA levels in skeletal muscle in vivo; parameters: species or system mice; settings: control littermates; 30 μg per 10 g body weight, 10 min
Experimental: as §2
Real-time PCR was carried out according to the method described in the following documents (Nature Med. 13, 332-339 2007); Nature 423, 762-769 (2003); J. Biol. Chem. 281, 8748-8755 (2006)). Total RNA was prepared from cells or tissues by using Trizol (Invitrogen) according to the manufacturer's instructions. Quantification of mRNA was conducted using a real-time PCR method (Nature 423, 762-769 (2003)) with slight modifications. The procedures used for immunoblotting are described in the following documents (Nature Med. 7, 941-946 (2001); J. Biol. Chem. 281, 26602-26614 (2006); J. Biol. Chem. 281, 8748-8755 (2006)). The livers or muscles were freeze-clamped in liquid nitrogen in situ (Nature Med. 7, 941-946 (2001); J. Biol. Chem. 281, 26602-26614 (2006); J. Biol. Chem. 281, 8748-8755 (2006)).

CaMKI [4] = assay: CaMKI phosphorylation in C2C12 myocytes; type: cell-based, mouse; settings: adiponectin 30 μg/ml, 0-20 min
Experimental: as §1

PGC-1α = PGC-1α acetylation in C2C12 myocytes; type: cell-based, mouse; settings: treatment for 2 hr
Experimental: as §1

B1: adiponectin (protein, UniProt Q60994 1-247, looked up)
chain: MLLLQALLFLLILPSHAEDDVTTTEELAPALVPPPKGTCAGWMAGIPGHPGHNGTPGRDGRDGTPGEKGEKGDAGLLGPKGETGDVGMTGAEGPRGFPGTPGRKGEPGEAAYVYRSAFSVGLETRVTVPNVPIRFTKIFYNQQNHYDGSTGKFYCNIPGLYYFSYHITVYMKDVKVSLFKKDKAVLFTYDQYQEKNVDQASGSVLLHLEVGDQVWLQVYGDGDHNGLYADNVNDSTFTGFLLYHDTN
modifications: full-length
notes: adipokine, internal ligand of adiponectin receptor 1; recombinant murine full-length adiponectin
C2C12 myocytes [1]
  dose dependence of calcium response: dose-dependent responses
C2C12 myocytes [1]; adiponectin 30 μg/ml
  intracellular calcium ion concentration (fura-2): increased an intracellular calcium ion concentration
C2C12 myocytes [2]
  NAD+ and NADH contents: increased
  NAD+/NADH ratio: increased a NAD^+/NADH ratio; also recorded: increased the NAD^+/NADH ratio
AMPK
  phosphorylation of AMPK α-subunits at Thr 172: increased the phosphorylation of the AMPK α-subunits at Thr 172
CaMKI [3]
  phosphorylation of CaMKI in skeletal muscle in vivo: significantly increased
AdipoR1; control oocytes without AdipoR1 cRNA
  calcium-ion activated Cl- current response: not observed
AdipoR1; oocytes expressing AdipoR1, adiponectin 30 μg/ml, holding potential -80 mV
  inward current response: induced inward current responses
AdipoR1; oocytes injected with AdipoR1 cRNA, adiponectin 30 μg/ml
  intracellular calcium levels by calcium-ion activated Cl- current: increase in intracellular calcium levels
PGC-1α (Ppargc1a)
  expression levels of Ppargc1a in muscle: increased the expression levels of Ppargc1a in the muscle of control littermates
CaMKI [4]
  CaMKI phosphorylation: rapid, robust, and transient increase
PGC-1α
  PGC-1α acetylation: decreased PGC-1α acetylation
